The results in this text go back to the RNAGym collection of RNA variant scans (doi:10.1073/pnas.2313332121).

The labels stand for the following.
B1: TPR t1 (parent)
chain: GACCAAUCUGCCCUCAGAGCUCGAGAACAUCUUCGGAUGCAGAGGAGGCAGGCUUCGGUGGCGCGAUAGCGCCAACGUCCUCAACCUCCAAUGCAUCCCACCACAUGAUGAUGCCUGAAGAGCCUUGGUUUUUUG

The data set covers variants of B1. In words: polymerase ribozyme fitness, log enrichment relative to wild type (log ratio); higher = more active; in vitro selection for triplet polymerase activity. In short, it runs like this:
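Fitness measures genotype enrichment against wild-type enrichment on a logarithmic scale, with inverse-variance-weighted averaging of replicates. The logarithm is base 2, and genotypes were kept only with ≥10 input reads and ≥1 read per output in Illumina sequencing. The sequenced libraries came from one triplicate in vitro selection round, including frozen incubation at −7 °C, of PCR-built, transcribed mutant libraries of each subunit of a heterodimeric triplet polymerase ribozyme.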
For C34G C124A, the “polymerase ribozyme fitness (log ratio)” value is -3.61.

G19U C124U: the “polymerase ribozyme fitness (log ratio)” value was -1.97.

For G19U A50C C98U G110A A121G, the “polymerase ribozyme fitness (log ratio)” value was -6.95.

With A46C C56A A91U C97U, the “polymerase ribozyme fitness (log ratio)” value is -3.95.

As to C11G U59G U92A C114U A121C G128U, the “polymerase ribozyme fitness (log ratio)” value was -3.21.

Regarding A18U U133G, the “polymerase ribozyme fitness (log ratio)” value was -1.41.

As for C89U G128C, the “polymerase ribozyme fitness (log ratio)” value was -3.21.

With G61U C102G G120C, the “polymerase ribozyme fitness (log ratio)” value was -6.46.

In the case of G51A U96G, the “polymerase ribozyme fitness (log ratio)” value was -3.85.

As to C115U U129A, the “polymerase ribozyme fitness (log ratio)” value is -3.34.

Consider A50C C56A G77C C115A, for which the “polymerase ribozyme fitness (log ratio)” value was -1.07.

For A24C C56U C114G, the “polymerase ribozyme fitness (log ratio)” value was -5.71.

Turning to U21A C89U, the “polymerase ribozyme fitness (log ratio)” value is -0.222.

In the case of U9A G107U G117C, the “polymerase ribozyme fitness (log ratio)” value was -6.35.

In the case of C8G C15U G19A U125A, the “polymerase ribozyme fitness (log ratio)” value was -2.55.

For the variant C22G A41U G63U U78C C99G, the “polymerase ribozyme fitness (log ratio)” value is -6.66.

Consider G71C G120A, for which the “polymerase ribozyme fitness (log ratio)” value was -0.0968.

On to U7A G61C, for which the “polymerase ribozyme fitness (log ratio)” value is -1.93.

In the case of U78C U116G, the “polymerase ribozyme fitness (log ratio)” value was -2.79.

As for A5U C62A, the “polymerase ribozyme fitness (log ratio)” value is -0.777.

U7G U92A: the “polymerase ribozyme fitness (log ratio)” value is -2.22.

Consider C70A C89G U125A, for which the “polymerase ribozyme fitness (log ratio)” value was -4.36.

G17A G71A: the “polymerase ribozyme fitness (log ratio)” value was -4.07.

Take G69A G135U: the “polymerase ribozyme fitness (log ratio)” value was -3.93.

Turning to C49U G120U, the “polymerase ribozyme fitness (log ratio)” value is -0.184.

C64A A83U: the “polymerase ribozyme fitness (log ratio)” value was -7.05.

Consider C64U U133G, for which the “polymerase ribozyme fitness (log ratio)” value was -0.439.

In the case of A24U C72G, the “polymerase ribozyme fitness (log ratio)” value is -5.64.

With C4U A41C C56A G63A, the “polymerase ribozyme fitness (log ratio)” value is -4.61.

With A18G C31G C88U C114G, the “polymerase ribozyme fitness (log ratio)” value is -5.82.

Turning to C12A C56A C115U G120A C123A, the “polymerase ribozyme fitness (log ratio)” value is -1.84.

As to C8U C13U C28G C82G C114G, the “polymerase ribozyme fitness (log ratio)” value is -4.82.

For the variant A5G G47U A50C C62U A105C, the “polymerase ribozyme fitness (log ratio)” value was -6.17.

In the case of A27U C115U, the “polymerase ribozyme fitness (log ratio)” value is -3.71.

As to G65C, the “polymerase ribozyme fitness (log ratio)” value is -5.62.

Take G45C U132C: the “polymerase ribozyme fitness (log ratio)” value was -1.51.

In the case of A6G U7G A18C G48U C53A G63A C115A U133A, the “polymerase ribozyme fitness (log ratio)” value is -1.29.

Take G39U G117C: the “polymerase ribozyme fitness (log ratio)” value is -4.79.

Turning to C34A A43U, the “polymerase ribozyme fitness (log ratio)” value is -5.98.

Turning to A6C C85A, the “polymerase ribozyme fitness (log ratio)” value was -2.67.

For the variant U32C C72A C82A A83U, the “polymerase ribozyme fitness (log ratio)” value is -0.635.

Regarding G44C G48A, the “polymerase ribozyme fitness (log ratio)” value is -0.967.

Turning to G36U C72U U96G G120C, the “polymerase ribozyme fitness (log ratio)” value is -0.581.

As to C85G C124G U126G, the “polymerase ribozyme fitness (log ratio)” value was -0.338.

Take C13A A29G C53U: the “polymerase ribozyme fitness (log ratio)” value was -2.88.

Consider A5C C76U, for which the “polymerase ribozyme fitness (log ratio)” value is -0.646.

Turning to C31U C82A, the “polymerase ribozyme fitness (log ratio)” value is -5.41.

In the case of G69C U133A, the “polymerase ribozyme fitness (log ratio)” value was -1.62.

As for C12A G57U C72U, the “polymerase ribozyme fitness (log ratio)” value is -0.582.

For the variant C20A C31G G39U A46U G47A A100C A108U U125A, the “polymerase ribozyme fitness (log ratio)” value is -6.51.

Regarding A5U G10A G36C G60C U78C C124U, the “polymerase ribozyme fitness (log ratio)” value was -2.58.

In the case of C8G G48U G93U U112A C124A, the “polymerase ribozyme fitness (log ratio)” value was -0.874.

Take C4A G69C: the “polymerase ribozyme fitness (log ratio)” value is -3.61.

As to U78C C99A U106C, the “polymerase ribozyme fitness (log ratio)” value is -4.95.

As for G36U G120A U126A U132A, the “polymerase ribozyme fitness (log ratio)” value is -0.708.

For A108U U129A, the “polymerase ribozyme fitness (log ratio)” value was -6.43.

Turning to C49A A91U A95G A100C, the “polymerase ribozyme fitness (log ratio)” value was -6.08.

In the case of C8G G48U G61U G93U U112A C124A, the “polymerase ribozyme fitness (log ratio)” value was -0.568.

As to C11G A18U G44A G69U, the “polymerase ribozyme fitness (log ratio)” value was 0.139.

Turning to C70U U131G U133A, the “polymerase ribozyme fitness (log ratio)” value is -0.369.

Consider C4G G71A, for which the “polymerase ribozyme fitness (log ratio)” value was -1.72.

On to A18G G42C C99A, for which the “polymerase ribozyme fitness (log ratio)” value is -5.32.

As to C53A A74U C89U, the “polymerase ribozyme fitness (log ratio)” value is -0.387.

Take A46U A74C U96A: the “polymerase ribozyme fitness (log ratio)” value was -1.66.

C8U C49G C123U: the “polymerase ribozyme fitness (log ratio)” value was 1.73.

As for U21G A27U G60U C80A C123G, the “polymerase ribozyme fitness (log ratio)” value is -6.74.

With C4U C15U A43U A46U, the “polymerase ribozyme fitness (log ratio)” value is -3.46.

Consider C13G G63A, for which the “polymerase ribozyme fitness (log ratio)” value was -2.24.

A2G C12U A75U A111G G113A: the “polymerase ribozyme fitness (log ratio)” value was -1.23.

Consider G60A C114A A121G, for which the “polymerase ribozyme fitness (log ratio)” value was -0.404.

As to G10A C85U, the “polymerase ribozyme fitness (log ratio)” value is -0.189.

For the variant C12U A26C G45C G61C A75C C82A, the “polymerase ribozyme fitness (log ratio)” value is -6.28.

Take C8U G60U U106A G122A: the “polymerase ribozyme fitness (log ratio)” value worked out at 0.855.

As for U59A U92G C104U, the “polymerase ribozyme fitness (log ratio)” value is -2.6.

U55C C85A: the “polymerase ribozyme fitness (log ratio)” value is -2.73.

A83U C85A U112A C114A: the “polymerase ribozyme fitness (log ratio)” value is -3.32.

Regarding C79G U92C, the “polymerase ribozyme fitness (log ratio)” value was -3.03.

Consider C34A G63C A100C C104A, for which the “polymerase ribozyme fitness (log ratio)” value was -6.04.

As to C8U A50G C72G, the “polymerase ribozyme fitness (log ratio)” value is -0.53.

As for A29U C101A G110A A118G A121G, the “polymerase ribozyme fitness (log ratio)” value is -4.96.

Take G47U G48A G63C A119G U130C: the “polymerase ribozyme fitness (log ratio)” value was -1.

For G42U G58C G63A C82G U87C, the “polymerase ribozyme fitness (log ratio)” value was -5.43.

For C12U C72G C102A, the “polymerase ribozyme fitness (log ratio)” value was -2.37.
